Assay: yeast display, Sf9 membrane polyspecificity reagent, FACS + sequencing; frameworks hold sequencing errors
Outline: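 After 36–48 hours of galactose induction, yeast (Saccharomyces cerevisiae BJ5465) displaying a synthetic nanobody library were stained at 4 °C for 1 hour with 10% biotinylated, detergent-solubilized Sf9 membrane reagent. Streptavidin microbeads enriched the stained cells before FACS sorting into low and high (top ~1%) gates on anti-HA and streptavidin fluorescence. Each clone's polyreactivity label reflects its gate of origin.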

| Sequence | polyreactivity (PSR sort gate) |
| --- | --- |
| QVQHVESGGGLVQAGGSLPLSGAASGLTFTRYAMGWYRQAPGKESELVAAISKNGGSTYYADSVTGRFTISRDNAKYTVYLQMNSLKPEDTAVYYCAARRSTSYPAGYDYWVQGTQVTVSS | high polyreactivity |
| QVQLVESGGGLVQAGGSLRLSCAASGSIYPYYAKGWNRPAPRKERELFAAIDSGGSTNYADSLKGRFSITRDNAKNRVYLQLNSLIPEDTAVFYCADDVYWFAYVWSKYVFWGQGTHVTVSS | low polyreactivity |
| QVQLVESGGGLVQAGGSLRLSCAASGSIFLYYAMGWYRQAPGKERELVATITKGGGSTYYADSVKGRFTISRDNAKNTVYLQMNSLKPEDTAVYYCAADAAHSEYDYWGQGTLVTVSS | high polyreactivity |
| QVQLVESGGGLVQAGGSLRLSCAASGFIFAYNAMGWYRQAPGKERELVAAISWSGGSTYYADSVKGRFTISRDNAKNTVYLQLNSLKPEDTAVYYCNKYIRYPFKRYGYWGQGTQVTVSS | high polyreactivity |
| QVQLVESGGGLGQAGGSLRLSCAASGSNFRPYAMGWYRPAPGKERELVAAISSSGGSTYYADSVKGRFTISRDNAKNTVYLQMNSLKPEDTAVYYCAAVSRSTWIHSRDYWGQGTQVTVSS | low polyreactivity |
| QVQLVESGGGLVQAGGSLRLSCAASGRTFRYNAMGWYRQAPGKERELVAAISTRGGSTYYADSVKGRFTISRDNAKNTVYLQMNSLKPEDTAVYYCAVTPRIPGHFEDYYWGQGTQVTVSS | low polyreactivity |
| QVQLVESGGGLVQAGGSLRLSCAASGFTFGSNAMGWYRQAPGKERELVAAISYSGTRTYYADSVKGRFTISRDNAKNTVYLQMNRLKPEDTAVNYCAAGFRKTQFNVRYDYWGQGTQVTVSS | high polyreactivity |
| QVQLVESGGGLVQAGGSLRLSCAASGNTFDYYAMGWYRQAPGKERELVAAITRGGSTNYADSVKGRFTISRDNAKNTVYLQMNSLKPEDTAGYYCAAEQRAPRFADYDYWGQGTQVTVSS | low polyreactivity |
| QVQLVESGGGLVQAGGSLRLSCAASGRIFSPNAMGWYRQAPGKERELVAAISWRGRTYYADSVKGRFTISRDNAKNTVYLQMNSLKPEDTAVYYCNAPYKYVRGDYWGQGTQVTVSS | high polyreactivity |
| QVQLVESGGGLLQAGGSLRLSCAASGSIFTYYAMGWYRQAPGKEREFVAAINYGGGSTYYADSVKGRFTISRDNAKNTVYLQMNSQKPEDTAVYYCNARTFGPNGKHRYGYWGQGTQVSVSS | high polyreactivity |
| QVQLVESGGGLVQAGGSLRLSCAASGRIFAYYAMGWYRQAPGKERELVATITRGGNTNYADSVKGRFTISRDNAKNTVYLQMNSLKPEDTAVYYCNRRYSRWGIYDYWGQGTQVTVSS | high polyreactivity |
| QVQLVESGGGLVKAGGSLLLSCAASGIIFRRNAMGRNIQAPGKERELVAAISSSKGRTYYADSVKGRFTISRDNAKNTVYLQMNSLKPEDTAVYYCTADYDASARGWGQIAYVYWGQGTQVTVSS | low polyreactivity |
| QVQLVESGGGLVQAGGSLRLSFAASGFTFRYYVMGWYRQAPGKERELVASISRGGSTTNYADSVKGRFTISRDNAKNTVFLQMNSLKPEDTAVYDCNVVITPGYSYDISRGEGYWGQGTQVTVSS | high polyreactivity |
| QVQLVESGGCLVQAGGSLRLSCAASGRTFRYYAMGWYRQAPGTERELVATITGSGGSTYYADSVKGRFTISRDNAKNTVYLQMTSLKPEDTAVYYCNARKVRYPYRWYDYWGQGTQVTVSS | high polyreactivity |
| QVQLVESGGGLVQAGGSLRLSCAASGRIFSRYAMGWYRQAPGKERELVAAITRRGGSTYYADSVKGRFTISRDNAKNTVYLQMNSLKPEDTAVYYCAADGQWPWWLLRYDYWGQGTQVTVSS | high polyreactivity |
| QFQLVESGGGLVQAGGSLRLSCAASGLTIDPNAMGWYRQAPGKERELVATITQTDGSTYYADSVKGRFTISRDNAKNTVYLQMNSLKPEDTAVYYCVGLVSRGSDYWGQGTQVTVSS | low polyreactivity |
| QVQLVESWGGLVQAGGSLRLSCAASGITFTVYAMGWYRQPPGKERELVAAITRGTSTYADSVKGRFTISRDNAKNTVYLQMNSLKPEDTAVYYCAARSSPWYTRYRSSELFDYWGQGTQVTVSS | high polyreactivity |
| QVQLVESGGGLVQAGGSLSISCAASGITLGHNAMGWYRQAPGKDRELVAAISWSGDRTFYADSVKGRFTISRDNAKNTVYLQMNSLKPEDTAVYYCNAEIGWHNEGRLSTYDYWGQGTQVTVSS | low polyreactivity |
| QVQLVESGGGLVQAGGSLRLSCAASGSIFTPYVMGWYRQAPGKEREFVAAITQRGGRTYYADSVKGRFTISRDNAKNTVYLQMNSLKPEDTAVYYCAKTSVSRTYHRSAYDYWGQGTQVTVSS | high polyreactivity |
| QVQLQESGGGLVQAGGSLRLSCAASGSNFDTPTMGWYRQAPGKERELVASSAYDDNTYYADSVKGRFTISRYNAKNTVYLQRNSLKPGDTAVYYCAVTDRIYYYFVYWGQGTRVTVSS | high polyreactivity |
| QVQLVESGGGVVQAGGSLRLSCAASGIIFDYYAMGLYRQAPGKERELVAAITSGGSTYYADSVKGRFTISRDNAKNSVYFQMKSLKAEDTAVYFCAAVYPRVRYDYWGQGTQVNVSS | high polyreactivity |
| QVQLVESGGGLVQAGGSLRLSCAASGSTFRYYDRGWYRQAPGKERELVAAITTSGDDTYYADSVKRRFTISRDNAKTTVYLQMNSLKPEDTAVYYCAADGYGGHKYELESWGQGTQVTVSS | low polyreactivity |

| Sequence | polyreactivity (PSR sort gate) |
| --- | --- |
| QVQLVESGGGLVQAGGSLRLSCAASGSTFSLYAMGWYRQAPGKERELVASSRWSGGRTYDADSVKGRFTISRDNAKNTVYLQMNSLKPEDTAVYYCAAAWRYGYGYLGQGTQVTVSS | high polyreactivity |
| QVQLVESGGGLVQAGGSLSLSCAASGRIFAYYAMGWYRQAPGKERELVAGISQRGSRTYYADSVKGRFTISRDNGKNTVYLQMNSLKPEDTAVYYCAARDRRSVTMDYWGQGTQVTVSS | high polyreactivity |
| QGQLVEAGGGLVQAGGSLRLSCAASGNTFKKYARGWYRQAPGKERELVAAISNGGSTTYADSVKGRFTISLDTAKNTVYLQMNSLKPEDTAVYYCNAGRPYGTQKRYDYWGQGTQVTVSS | low polyreactivity |
| QVQLVESGGGLVQAGGSLRLSCAASGSTFGNYAMGWYRQATGKERELVAASRWSGTRTFYADSVKGRFTISRDNAKNTVYLQMNSLKPEDTAVYYCNAVYSQPGYKGGYSWGQGTQVTVSS | high polyreactivity |
| QVQLVESGGGLVQAGGSLRLSSAASGITFYDYAMGWSRPSPGKERELVAAINSSGVRTYYADSVKGRFTISRDNAKNTVYLQMKSLNPEYTAVYYCAAKLVYGGRYGYWGQGTQVTVSS | high polyreactivity |
| QVQHVESGGGLVQAGGSLRLSCAASGSTFYGNTMGCYRQAPGKERELVAAISIRGTRTYYADSVKGRFTISRDNAKNTVYLQMNSLKPEDTAVYYCNAVTFPHNYDYWGQGTQVTVSS | high polyreactivity |
| QVQHVESGGGLVKAGGSLRLSCAATGSIFSPYAMGWYILAPGKERELVAAISRSGRTHYADSVKGRFTISRDNAKHTVYLQMNSLKADDTAVYFCAAGVVYGYYYWGQGTQVTVSS | high polyreactivity |
| QVQLVESGGGLVQAGGSLRLSCAASGSIFVTYAMGWYRPAPGKERELVAAISTSGGSTYADSVKGRFTISRDNAKNTVYLQMNSLKPVDTAVYYCNADDPGYAVPWYWFKYDYWGQGTQVTVSS | low polyreactivity |
| QVQLVESGGGLVQAGGSLRLSCAASGRIFIYNAMGWYRQAPGKERELVAAISYSGGRTYYADSVKGRFTISRDNPKNTVYLQMNRLKPEDPAVYYCNAAYRISSAPGYFYFPYNYDYWGQGTQVTVSS | high polyreactivity |
| QVQLVESGGGLVQAGGSLRLSCSASGRIFDTYAMGWYRQAPGKERELVAAIRRTGGSTYYADSVKGRFTISRDNAKNTVYLQMNSLKPEDTAVYYCAAEYTVSYLRMDYWGQGTQVTVSS | low polyreactivity |
| QVQLVESGGGLFQAGGSLRLTCAASGITFYYYAMGWYRQAPGKERELVAAISVRGTRTFYADCVKWRFTISRDNAKNTVYLQMNSLKPEDTEVYYCNKSVSNDDGLEYWGQGTQVTVSS | high polyreactivity |
| QVQLVESGGGLVQAGGSLRLSCAASGSTFYRNVMGWYRQAPGKERELVAAISSGGSTYYADSVKGRFTISRDNAKNTVYLQMNSLKPEDTAVYYCARRLTREYDYWGQGTQVTVSS | low polyreactivity |
| QVQLVESGGGLVQAGGSLRLSCAASGRTFRDNTMGWYRQAPGKERELVAGISSSTGSTYYADSVKGRFTISRDNAKNTVYLQMNSLKPEDTAVYYCAAEYADYWTYNMGYWGQGTQVTVSS | low polyreactivity |
| QDQLVDSGGGLVQAGGSLRLSCAASGSIQSRYAMGWYRQAPGKERELVAAISRSTDSTYYADSVKGRFTISRDNAKNTVYLKMNSLKPEDTAGYYCNAVYRSSYQKGSMDYWGQGTQVTVSS | high polyreactivity |
| QVQLVESGGGLFQAGGSLRLSCAANGSIFDYYAMGWYRQSPGKERELVAAITRSGVRTYYADSVKGRFTISRDNAKNTVYLQMNSMKPEDTAVYYCGAVYYPLSFDNDYWGQGTQVTVSS | high polyreactivity |
| QDQLVESGGGLVQARGSLRLICSASGFIISDYAMGWSRQAPGEERELVAVITWRSGSTYYADSVKGRFTISRDNAKNTVYLQMNSLKPEDTAVYYCAARYYRNYSQGRRLGYNYWGQGTQVTVSS | high polyreactivity |
| QVQLVESGGGLVQAGGSLRLSCAASGSILQINPMGWYRPAPAKERDLVAANDWGGGDTYYADSVKGRFTIARDNAKNTVYVQMISLKTEDTAVYYCAAEGVSWYVWDFYDIYGYWGHGTQVTVSS | high polyreactivity |
| QVQLVESGGGLVHAGGSLRLSCAASGSIFDFNAMGWYRQVPGKERELVAAITSGGSTNYADSVKGRFTISRDNAKNTVYLQMNSLKPEDTAVYYCAARPARGASQGGYVRPWWYDSWGQGTQVTVSS | low polyreactivity |
| QVQLVESGGGLVQAGGSLRLSCAASGFIFDEYAMGWYRQAPGKERELVAAISWSGSRTYYADSVKGRFTISRDNAKNTVYLQMNRLKPEDTSVYYCAKVTGVVAGRRNYWGQGTQVTVSS | low polyreactivity |
| QVQLVESGGGLVQAGGSLRLSCAASGRTFSYYAMGCYRQAPGKERELVASISSGGSTKYADSVKGRFTISRDNAKNTVYLQMNSLKPEDTAVYYCAVTYWYGRVLYGYWGQGTQVTVSS | high polyreactivity |
| QVQLVESGGGLVQAGGSLRLSCAASGSTFVYYAMVWYRQAPGKERELVAAITGSVDSTYYADSVKGRFTISRDNAKNTVYLQMNSVKPEDTAVYYCAADTYSTYWGQGTQVTVSS | low polyreactivity |

Source: the nanobody polyreactivity screen of Harvey et al. (2022)
